This note sets out measurements from patent US20200231681A1.

Experiment [1] deals with EGFR on HCC827 cells (EGFR E746-A750 deletion mutation) (human) (UniProt P00533). In words: cell-based or functional assay.
The target of experiment [2] is c-Met receptor on human tumor cells (MKN45, NCI-H820, HCC827) (human) (UniProt P08581). Put plainly: cell-based or functional assay.
For experiment [3], the target named is cynomolgus monkey EGFR ECD (SiNo. Biological, 90285-008B) (cynomolgus monkey). In words: SPR (BIAcore), antibody captured by anti-human IgG Fc, antigen as analyte, 1:1 Langmuir.
Experiment [4] has as its target c-Met receptor on human tumor cells (MKN45, NCI-H820, HCC827) (human) (UniProt P08581). Put plainly: flow cytometry on MKN45 cells, 100 nM control antibody, anti-human kappa LC-FITC (column of hu8C4).
Experiment [5] shares this target. Put plainly: flow cytometry on MKN45 cells, 100 nM control antibody, anti-human kappa LC-FITC (column of OA-5D5).

Sequence of c-Met receptor on human tumor cells (MKN45, NCI-H820, HCC827) (human) (P08581 25-1390): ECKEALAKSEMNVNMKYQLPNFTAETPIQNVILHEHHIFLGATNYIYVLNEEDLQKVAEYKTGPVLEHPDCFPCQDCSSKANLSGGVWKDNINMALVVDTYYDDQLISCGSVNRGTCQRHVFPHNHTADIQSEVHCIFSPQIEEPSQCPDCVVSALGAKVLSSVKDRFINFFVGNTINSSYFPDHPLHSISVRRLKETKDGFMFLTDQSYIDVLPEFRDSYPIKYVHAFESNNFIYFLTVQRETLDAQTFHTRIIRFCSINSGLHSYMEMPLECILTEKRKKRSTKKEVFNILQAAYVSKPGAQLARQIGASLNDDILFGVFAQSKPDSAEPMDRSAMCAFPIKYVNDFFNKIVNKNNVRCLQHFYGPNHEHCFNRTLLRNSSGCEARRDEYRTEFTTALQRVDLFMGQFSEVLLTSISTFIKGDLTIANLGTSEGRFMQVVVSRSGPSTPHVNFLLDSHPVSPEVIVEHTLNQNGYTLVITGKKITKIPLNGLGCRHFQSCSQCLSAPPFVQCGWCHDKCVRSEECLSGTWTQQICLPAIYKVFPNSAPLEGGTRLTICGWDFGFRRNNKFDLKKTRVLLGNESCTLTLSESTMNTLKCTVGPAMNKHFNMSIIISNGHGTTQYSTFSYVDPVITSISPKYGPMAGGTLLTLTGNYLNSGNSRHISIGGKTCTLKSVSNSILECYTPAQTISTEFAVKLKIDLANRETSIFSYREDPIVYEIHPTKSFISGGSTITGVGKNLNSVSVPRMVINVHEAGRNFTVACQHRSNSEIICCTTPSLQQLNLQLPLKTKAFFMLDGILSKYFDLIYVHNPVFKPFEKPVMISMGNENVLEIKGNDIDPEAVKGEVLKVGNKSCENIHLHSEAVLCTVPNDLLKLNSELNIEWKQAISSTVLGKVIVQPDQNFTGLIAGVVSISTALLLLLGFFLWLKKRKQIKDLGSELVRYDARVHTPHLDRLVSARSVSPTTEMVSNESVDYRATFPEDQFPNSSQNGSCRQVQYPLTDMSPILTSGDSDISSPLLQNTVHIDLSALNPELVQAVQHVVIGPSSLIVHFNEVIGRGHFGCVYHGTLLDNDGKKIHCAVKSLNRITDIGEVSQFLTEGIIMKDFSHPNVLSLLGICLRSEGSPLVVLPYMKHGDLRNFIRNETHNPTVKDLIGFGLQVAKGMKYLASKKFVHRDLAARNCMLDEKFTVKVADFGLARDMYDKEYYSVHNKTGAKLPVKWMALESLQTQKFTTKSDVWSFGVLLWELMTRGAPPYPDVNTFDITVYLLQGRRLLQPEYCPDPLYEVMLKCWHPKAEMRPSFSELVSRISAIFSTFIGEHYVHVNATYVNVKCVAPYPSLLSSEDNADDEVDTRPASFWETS

Consider “C-EM1 (EM1-MAb, Janssen; control c-Met/EGFR bispecific antibody)”, for which the EGFR on the surface of HCC827 cells after 18 h with 100 nM antibody, Means (geo MFI); human IgG control 11494 in experiment [1] is 11500 geo MFI. For the same substance, in experiment [2], the c-Met on the surface of HCC827 cells after 18 h with 100 nM antibody, Means (geo MFI); human IgG control 5653 is 3660 geo MFI and the decrease of c-Met on the surface of HCC827 cells amounted to 40%.
On to “C-LA480 (LA480, Lilly; control c-Met antibody)”, for which, in experiment [2], the c-Met on the surface of HCC827 cells after 18 h with 100 nM antibody, Means (geo MFI); human IgG control 5653 worked out at 3270 geo MFI and the decrease of c-Met on the surface of HCC827 cells came to 40%.
In experiment [3], Vectibix (antibody) yielded a Kd of 0.209 nM.
Regarding human IgG antibody (negative control), the FITC MFI [IgG control] (FITC geo-mean (MFI)) in experiment [4] and in experiment [5] was 127 each time.
